From patent US10925971B2, “Methods of treating PRLR positive breast cancer” (Regeneron Pharmaceuticals, Inc., priority 2016, dated 2021)

B1: H1H6803P-DM1 (conjugate)
VH: EVQLVESGGGVVRPGGSLRLSCAASGFKFDDYGMTWVRHVPGKGLEWVSGINWNGGRTGYTDSVKGRFTISRDNAKNSLYLQMNSLRAEDTALYHCAGARRDAFDIWGQGTMVTVSS
VL: DIQMTQSPSSLSASIGDRVTITCRASQNIIKYLNWYQQNAGKAPKLLIYTASSLQSGVPSRFSGSGSGTDFTLTISSLQPEDFATYYCQQSSSSPYTFGQGTKLEIK
B2: H1H6960N-DM1 (conjugate)
VH: EVQLVESGGGLVKPGGSLRLSCAASGITFSSYSMNWVRQAPGKGLEWVSSISTRSSLIHYADSVKGRFTISRDNAKNSLYLQMNSLRDEDTAVYYCARWDAAAAFDYWGQGTLVIVSS
VL: DIQLTQSPSFLSASVGDRVTITCWASQGISSYLAWYQQKPGKAPKLLIYVASTLQSGVPSRFSGSGSGTEFTLTISSLQPEDFATYFCQQLNSYPLTFGGGTKVEIK
B3: H1H6959N2-DM1 (conjugate)
VH: EVQLVESGGGLVQPGRSLRLSCAASGFTFDDYAMHWVRQAPGKGLEWVSGISWHSGIIGYADSVKGRFTISRDNAKNSLYLQMNSLRTEDAALYYCAKIGSYFYFDSWGQGTLVTVSS
VL: EIVLTQSPGTLSLSPGERATLSCRASQSVSSNYLAWYQQKPGQAPRLLIYGASSRATGIPDRFSGSGSGTDFTLTISRLEPEDFAVYYCQQFGSSGYTFGQGTNLEIK
B4: H1H6975N-DM1 (conjugate)
VH: EVHLVESGGGLVQPGGSLRLSCAASGFTFSSYEMNWVRQTPGKGLEWISHISSRSVIIYYADSVKGRFTISRDNAKNSLFLQMNSLRAEDTAVYFCAGITIFGIPEYWGQGTLVTVSS
VL: EIVLTQSPATLSLSPGERATLSCRASQSVSSYFAWYQQKPGQAPRLLIYDASSRATGIPTRFSGSGSGTDFTLTISSLEPEDFAVYYCQQRSSWPITFGQGTRLEIK
B5: H1H6793P-DM1 (conjugate)
VH: EVQLVESGGGLVQPGGSLRLSCAASGFSFSIYAMSWFRQAPGKGLEWVSAINGRGDGTHYADSVKGRFTISRDNSKTTLYLQMSSLRAEDTAVYYCAKPVMSTNGFDIWGQGTMVTVSS
VL: DIQMTQSPSTLSASVGDRVTITCRASQSISSWLAWYQLKPGKAPKLLIYKASNLESGVPSRFSGSGSGTEFTLTISSLQPDDFATYYCQQYNIYWTFGQGTKVEIK
B6: H1H6762P-DM1 (conjugate)
VH: QVQLVESGGGVVQPGRSLRLSCAASGFTFSHYGMVWVRQPPGKGLEWVALISFDGTTKYYADSVKGRFTISRDNSKNTLYLQMNSLRAEDTAVYFCVGAIAAAAFDLWGRGTLVTVSS
VL: EIVMTQSPATLSVSPGERATLSCRASQSVSSDLAWYQQKPGQAPRLLIYSASARATGIPARFTGSGSGTDFTLTISSLQSEDFAVYYCQQYNNWPMYTFGQGTKLEIK

Columns and labels:
HEK293 (293) cells = assay: In vitro cell viability (cell kill) assay, CCK8; format: cell-based, human; settings: 293; Table 11; 3 days
Excerpt: (§1) PRLR-overexpressing cells, including HEK293, PC3, MCF7 and NCI-N87, were generated to assess the ability of anti-PRLR conjugated antibodies to reduce cell viability. For comparative purposes, PC3 and T47D cells with overexpressed ErbB2 were also generated, as well as an MCF7 cell line over-expressing both hPRLR and hErbB2. Briefly, Lipofectamine® 2000-mediated transfection methodology was utilized to generate HEK293 cells expressing human PRLR (HEK293/hPRLR) or human ErbB2 (HEK293/hErbB2). Lipofectamine LTX with Plus Reagent was used to generate PC3 cells expressing human PRLR (PC3/hPRLR) or human ErbB2 (PC3/hErbB2). Lentiviral-mediated transduction was utilized to generate MCF7 cells expressing human PRLR (MCF7/hPRLR), NCI-N87 cells expressing human PRLR (NCI-N87/hPRLR), T47D cells over-expressing human ErbB2 (T47D/hErbB2), and MCF7 cells expressing both human PRLR and human ErbB2 (MCF7/hPRLR/hErbB2). All lines were selected for at least two weeks in complete growth media plus appropriate selection reagents. Stably expressing populations were enriched for PRLR expression via FACS using the anti PRLR antibody Control I.
(§2) Next, the ability of anti-PRLR-DM1 antibody-drug conjugates (i.e., anti-PRLR antibodies conjugated to DM1 via a non-cleavable linker [SMCC]) to reduce cell viability was determined using in vitro cell based assays. Cells were seeded in PDL-coated 96 well plates at 1500 to 10000 cells per well in complete growth media and allowed to grow overnight. For cell viability curves, ADCs or free DM1 (as the methyl disulfide derivative DM1-SMe) were added to the cells at final concentrations ranging from 500 nM to 5 pM and incubated for 3 days. The 293, PC3 and T47D cells were incubated with CCK8 (Dojindo, Rockville, Md.) for the final 1-3 hours and the absorbance at 450 nm (OD450) was determined on a Flexstation3 (Molecular Devices, Sunnyvale, Calif.). MCF7 cells were treated with Hoechst 33342 nuclear stain while being fixed with 4% formaldehyde. Images were acquired on the ImageXpress micro XL (Molecular Devices, Sunnyvale, Calif.) and nuclear counts were determined via Columbus image analysis software (Perkin Elmer, Shelton, Conn.). Background OD450 values (PC3, 293, and T47D) or nuclear counts (MCF7) from digitonin (40 nM) treated cells was subtracted from all wells and viability was expressed as a percentage of the untreated controls. IC50 values were determined from a four-parameter logistic equation over a 10-point response curve (GraphPad Prism).

PC3 cells = assay: In vitro cell viability (cell kill) assay, CCK8; format: cell-based, human; settings: Table 11, 3 days
Excerpt: as §1, §2

PC3/PRLR tumors = assay: PC3/PRLR xenograft, tumor size and tumor growth inhibition; format: in vivo, SCID mice
Excerpt: (§3) Briefly, 20×10^6 MCF7/PRLR cells (ATCC HTB-22 transfected with full length hPRLR as previously described) were implanted subcutaneously into the left mammary fat pad of female NCr nude mice. In other studies, 10×10^6 PC3/PRLR (ATCC CRL-1435 transfected with full length hPRLR as previously described) were implanted subcutaneously into the left flank of male SCID mice. Additionally, 10×10^6 parental T47D (ATCC HTB-133) or 7.5×10^10 T47D #11 cells (ATCC HTB-133 serially passaged in vivo as described below) were subcutaneously implanted into the left flank of female CB17 SCID mice. All mice were obtained from Taconic (Hudson, N.Y.). Each bolus of cells was supplemented with a 90-day estrogen release pellet (1.7 mg/pellet; Innovative Research America, Sarasota Fla.). […] Control reagents included PBS vehicle, free methyl-disulfide DM1 (DM1-SMe) and isotype Control 1-DM1.
(§4) In multi-dose studies, mice were dosed once a week for a total of three weeks with tumor volumes and body weights being monitored twice weekly throughout the study. Test ADCs were dosed at 5 and/or 15 mg/kg in the multi-dose studies. In single-dose studies, mice received a single dose of test ADC, and tumor volumes and body weights were monitored twice weekly throughout the study. Test ADCs were dosed at 1, 2.5, 5, and 15 mg/kg in the single-dose studies. Average tumor size as well as tumor growth inhibition relative to the vehicle treated group were calculated for each group. Tumors were measured with calipers twice a week until the average size of the vehicle group reached 1000 mm^3. Tumor size was calculated using the formula (length×width^2)/2. Tumor growth inhibition was calculated according to the following formula: (1−((Tfinal−Tinitial)/(Cfinal−Cinitial)))*100, where T (treated group) and C (control group) represent the mean tumor mass on the day the vehicle group reached 1000 mm^3. […] Results are summarized in Tables 21-25 (multi-dose) and Table 26 (single dose). (NT=not tested in the particular experiment shown).

MCF7/PRLR tumors = assay: MCF7/PRLR breast cancer xenograft, tumor size and tumor growth inhibition; format: in vivo, NCr nude mice; settings: for Average Tumor Growth Inhibition (%) / Final Tumor size mm^3 (mean ± SEM): MCF7/PRLR tumors TRIAL #1, NCr Nude mice, Day 52
Excerpt: as §3, §4

[1] = PC3/PRLR tumors TRIAL #1, SCID mice, multi-dose 5 mg/kg, Day 63

Molecule | % Kill (HEK293 (293) cells) [%] | % Kill (PC3 cells) [%] | IC50 (HEK293 (293) cells) [nM] | IC50 (PC3 cells) [nM] | further results
B1 | 7 | 72 |  |  | 
B2 |  | 80 | 75 | 150 | 
B3 |  | 79 | 75 | 150 | 
B4 |  | 71 |  |  | Average Tumor Growth Inhibition (%) (PC3/PRLR tumors; [1]): 31%; Final Tumor size mm^3 (mean ± SEM) (PC3/PRLR tumors; [1]): 973 ± 169 mm^3; Final Tumor size mm^3 (mean ± SEM) (PC3/PRLR tumors; PC3/PRLR tumors TRIAL #1, SCID mice, multi-dose 15 mg/kg, Day 63): 895 ± 63 mm^3; PC3/PRLR tumor growth (PC3/PRLR tumors; multi-dose, especially at 15 mg/kg): demonstrated inhibition of tumor growth; Average Tumor Growth Inhibition (%) (MCF7/PRLR tumors; multi-dose 5 mg/kg): 118%; Final Tumor size mm^3 (mean ± SEM) (MCF7/PRLR tumors; multi-dose 5 mg/kg): 125 ± 46 mm^3; Average Tumor Growth Inhibition (%) (MCF7/PRLR tumors; multi-dose 15 mg/kg): 135%; Final Tumor size mm^3 (mean ± SEM) (MCF7/PRLR tumors; multi-dose 15 mg/kg): 0 ± 0 mm^3; MCF7/PRLR tumor growth (MCF7/PRLR tumors; first multi-dose trial, 5 and 15 mg/kg): potently inhibited MCF7/PRLR tumor growth
B5 | 84 | 72 | 100 | 200 | 
B6 | 89 | 78 |  | 250 | 
